Reference: paper PMC10786891, “Massively parallel profiling of RNA-targeting CRISPR-Cas13d”
Positions count from the first letter of the chain named. Names may count otherwise.

B1: target 1 insU 3' of 21,insA 3' of 2 (mixed)
RNA 1: CACCCGUGCAAAAAUGCAGGGGUCUAAAACUGAGCGGAUAACCUCUCUAUGG
RNA 2: GGGAAUGGAUCCACAUCUACGAAUUCGUACCUAUAGAGAGGUUAUCCGCUCAACCGAGAUCGGAAGAGCACACGU
B2: target 1 C6A,C7G (mixed)
RNA 1: B1 RNA 1
RNA 2: GGGAAUGGAUCCACAUCUACGAAUUCGUACCAUAGAGAGGUUAUGAGCUCACCGAGAUCGGAAGAGCACACGU
B3: target 3 insU 3' of 22,insC 3' of 8 (mixed)
RNA 1: CACCCGUGCAAAAUUGCAGGGGUCUAAAACGACCUGAAUAUUUCAGAUCAAA
RNA 2: GGGAAUGGAUCCACAUCUACGAAUUCGUUUUUUGAUCUGAAAUAUCUCAGGUCUGCAGAUCGGAAGAGCACACGU
B4: target 3 insA 3' of 3,insU 3' of 3 (mixed)
RNA 1: B3 RNA 1
RNA 2: GGGAAUGGAUCCACAUCUACGAAUUCGUUUUUGAUCUGAAAUAUUCAGGAUUCUGCAGAUCGGAAGAGCACACGU
B5: target 3 insU 3' of 22,insG 3' of 8 (mixed)
RNA 1: B3 RNA 1
RNA 2: B3 RNA 2 with C46G
B6: target 3 insC 3' of 13,insU 3' of 3 (mixed)
RNA 1: B3 RNA 1
RNA 2: B4 RNA 2 with A40C, U42A, A43U, U44A, C46U, A47C, G48A, A50G
B7: target 3 G4C,U22C (mixed)
RNA 1: B3 RNA 1
RNA 2: GGGAAUGGAUCCACAUCUACGAAUUCGUUCUUGAUCUGAAAUAUUCACGUCUGCAGAUCGGAAGAGCACACGU
B8: target 3 del4,del6 (mixed)
RNA 1: B3 RNA 1
RNA 2: GGGAAUGGAUCCACAUCUACGAAUUCGUUUUUGAUCUGAAAUAUUAGUCUGCAGAUCGGAAGAGCACACGU
B9: target 3 A5G,U22A (mixed)
RNA 1: B3 RNA 1
RNA 2: B7 RNA 2 with C30A, A47G, C48G
B10: target 3 insC 3' of 8,insU 3' of 4 (mixed)
RNA 1: B3 RNA 1
RNA 2: B4 RNA 2 with U45C, C46U, A47C, G48A, A50U, U51G
B11: target 3 G4C,A11G (mixed)
RNA 1: B3 RNA 1
RNA 2: B7 RNA 2 with C30U, A41G
B12: target 3 insU 3' of 4,insA 3' of 2 (mixed)
RNA 1: B3 RNA 1
RNA 2: B4 RNA 2 with G49U, A50G, U52A
B13: target 3 G4C,U20C (mixed)
RNA 1: B3 RNA 1
RNA 2: B7 RNA 2 with C30U, U32C
B14: target 3 U7A,A9G (mixed)
RNA 1: B3 RNA 1
RNA 2: B7 RNA 2 with C30U, A43G, U45A, C48G
B15: target 3 C6A,U8A (mixed)
RNA 1: B3 RNA 1
RNA 2: B7 RNA 2 with C30U, U44A, C46A, C48G
B16: target 3 insA 3' of 8,insG 3' of 8 (mixed)
RNA 1: B3 RNA 1
RNA 2: B4 RNA 2 with U45A, C46G, A47U, G48C, G49A, A50G, U51G
B17: target 3 G4U,U22A (mixed)
RNA 1: B3 RNA 1
RNA 2: B7 RNA 2 with C30A, C48U
B18: target 3 insC 3' of 9,insC 3' of 5 (mixed)
RNA 1: B3 RNA 1
RNA 2: B4 RNA 2 with U44C, C46U, A47C, G48A, G49C, A50G, U51G
B19: target 3 insU 3' of 6,insA 3' of 4 (mixed)
RNA 1: B3 RNA 1
RNA 2: B4 RNA 2 with A47U, G48A, U51G
B20: target 3 insA 3' of 21,insC 3' of 20 (mixed)
RNA 1: B3 RNA 1
RNA 2: GGGAAUGGAUCCACAUCUACGAAUUCGUUUUAUCGAUCUGAAAUAUUCAGGUCUGCAGAUCGGAAGAGCACACGU
B21: target 3 complement block 6-8 (mixed)
RNA 1: B3 RNA 1
RNA 2: B7 RNA 2 with C30U, U44A, U45A, C46G, C48G
B22: target 3 A11G (mixed)
RNA 1: B3 RNA 1
RNA 2: B7 RNA 2 with C30U, A41G, C48G
B23: target 3 insA 3' of 21,insU 3' of 5 (mixed)
RNA 1: B3 RNA 1
RNA 2: B3 RNA 2 with U32A, C46U, U47C, C48A, A49U
B24: target 3 insG 3' of 2 (mixed)
RNA 1: B3 RNA 1
RNA 2: GGGAAUGGAUCCACAUCUACGAAUUCGUUUUUGAUCUGAAAUAUUCAGGUGCUGCAGAUCGGAAGAGCACACGU
B25: target 3 insA 3' of 7,insA 3' of 6 (mixed)
RNA 1: B3 RNA 1
RNA 2: B4 RNA 2 with C46A, A47C, G48A, G49A, A50G, U51G
B26: target 3 insA 3' of 14,insA 3' of 6 (mixed)
RNA 1: B3 RNA 1
RNA 2: B4 RNA 2 with U42A, A43U, U44A, C46U, A47C, G48A, G49A, A50G, U51G
B27: target 3 insU 3' of 4,insA 3' of 3 (mixed)
RNA 1: B3 RNA 1
RNA 2: B4 RNA 2 with G49U, A50G, U51A
B28: target 3 A18G,U20A (mixed)
RNA 1: B3 RNA 1
RNA 2: B7 RNA 2 with C30U, U32A, A34G, C48G
B29: target 3 insA 3' of 19,insU 3' of 1 (mixed)
RNA 1: B3 RNA 1
RNA 2: B3 RNA 2 with U33G, G34A, C46U, U47C, C48A, A49G, G51U, U52C, C53U
B30: target 3 insA 3' of 16,insA 3' of 2 (mixed)
RNA 1: B3 RNA 1
RNA 2: GGGAAUGGAUCCACAUCUACGAAUUCGUUUUUGAUCAUGAAAUAUUCAGGUACUGCAGAUCGGAAGAGCACACGU
B31: target 3 complement block 3-6 (mixed)
RNA 1: B3 RNA 1
RNA 2: B7 RNA 2 with C30U, C46G, A47U, G49C

Molecular target: T1, EsCas13d, nuclease-dead (Eubacterium siraeum, UniProt B0MS50, R295A;H300A;R849A;H854A)
T1 sequence: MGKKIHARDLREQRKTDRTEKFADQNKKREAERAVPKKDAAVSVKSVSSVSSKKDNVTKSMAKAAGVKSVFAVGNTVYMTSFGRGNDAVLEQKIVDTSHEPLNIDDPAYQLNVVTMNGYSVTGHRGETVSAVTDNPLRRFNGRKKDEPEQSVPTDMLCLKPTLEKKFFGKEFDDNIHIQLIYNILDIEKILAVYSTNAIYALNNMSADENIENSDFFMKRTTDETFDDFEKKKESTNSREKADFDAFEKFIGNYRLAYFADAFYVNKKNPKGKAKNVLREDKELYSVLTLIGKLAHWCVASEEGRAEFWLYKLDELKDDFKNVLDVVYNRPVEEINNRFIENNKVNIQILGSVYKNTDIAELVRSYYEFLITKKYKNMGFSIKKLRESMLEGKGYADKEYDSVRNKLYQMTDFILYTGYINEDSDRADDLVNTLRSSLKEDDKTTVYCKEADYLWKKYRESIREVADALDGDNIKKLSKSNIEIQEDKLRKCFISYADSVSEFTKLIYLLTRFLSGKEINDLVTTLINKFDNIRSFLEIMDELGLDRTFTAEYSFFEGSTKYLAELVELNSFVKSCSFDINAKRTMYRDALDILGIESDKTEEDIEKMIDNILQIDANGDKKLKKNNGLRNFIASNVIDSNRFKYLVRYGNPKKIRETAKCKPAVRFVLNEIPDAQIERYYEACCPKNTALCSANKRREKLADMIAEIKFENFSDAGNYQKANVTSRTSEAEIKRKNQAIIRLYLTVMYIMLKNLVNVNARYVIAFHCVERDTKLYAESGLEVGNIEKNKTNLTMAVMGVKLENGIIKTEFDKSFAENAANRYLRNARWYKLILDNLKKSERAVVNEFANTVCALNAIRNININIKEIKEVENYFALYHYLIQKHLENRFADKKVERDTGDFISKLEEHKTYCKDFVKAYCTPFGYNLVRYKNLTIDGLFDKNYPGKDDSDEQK
Assay: crRNA (strand 1, pre-loaded); Mg2+; 40 mM Tris-HCl pH 7.5, 150 mM NaCl, 6 mM MgCl2, 1 mM DTT, 0.1% Tween-20, 0.2 mg/ml BSA; 25 C; 10 min per concentration, then washed
Conditions: tags: His6-TwinStrep-SUMO cleaved; N-terminal SNAP kept (SNAP-Surface 488); label: 3' end held by stalled T7 RNA polymerase

Binder | Kd
B1 | 0.0268 ± 0.0028 µM
B2 | 0.00686 ± 0.00018 µM
B3 | 0.106 ± 0.032 µM
B4 | 0.0279 ± 0.0029 µM
B5 | 0.0505 ± 0.0115 µM
B6 | 0.0325 ± 0.008 µM
B7 | 0.013 ± 0.00215 µM
B8 | 0.019 ± 0.00325 µM
B9 | 0.0216 ± 0.00285 µM
B10 | 0.105 ± 0.042 µM
B11 | 0.0545 ± 0.0185 µM
B12 | 0.00465 ± 0.00075 µM
B13 | 0.057 ± 0.012 µM
B14 | 0.097 ± 0.0175 µM
B15 | 0.059 ± 0.0085 µM
B16 | 0.0535 ± 0.0085 µM

Binder | Kd
B17 | 0.00445 ± 0.000435 µM
B18 | 0.099 ± 0.021 µM
B19 | 0.0194 ± 0.0036 µM
B20 | 0.0735 ± 0.0205 µM
B21 | 0.102 ± 0.0235 µM
B22 | 0.057 ± 0.0115 µM
B23 | 0.044 ± 0.00465 µM
B24 | 0.0371 ± 0.0037 µM
B25 | 0.0237 ± 0.00265 µM
B26 | 0.0905 ± 0.025 µM
B27 | 0.0178 ± 0.00245 µM
B28 | 0.0835 ± 0.0365 µM
B29 | 0.068 ± 0.021 µM
B30 | 0.0845 ± 0.0255 µM
B31 | 0.057 ± 0.006 µM
